Test results published in patent US20100278838A1, “EPHA2 MONOCLONAL ANTIBODIES AND METHODS OF USE THEREOF” (MEDIMMUNE, LLC, priority 2002, published 2010).
“Also recorded” adds a separate entry of the source.

Key:
control MCF-7 cells = assay: Soft agar colonization of control MCF-7 cells; type: cell-based; conditions: EA2 10 μg/ml, tamoxifen 1 μM
Method: (§1) FIGS. 11A-11B: EphA2 overexpression decreases tamoxifen sensitivity. (A) 1×10^5 MCF-7 or MCF-7^EphA2 cells were suspended in soft agar in the presence of 1 μM tamoxifen (TAM) and or 1 μM 17β-estradiol and colony formation was evaluated microscopically after 14 days. (B) MCF-7 (circles) or MCF-7^EphA2 cells (squares) were implanted into the mammary fatpad (n=15 mice per group) in the presence of supplemental estrogen. Tamoxifen treatment was initiated 17 days post-implantation. Tumor volume of tamoxifen treated (black circles and squares) and saline treated (white circles and squares) animals was measured at the indicated time.
(§2) FIGS. 13A-13C: EphA2 agonistic antibody EA2 decreases malignant growth. MCF-7^EPhA2 cells were incubated in the presence of 3 μg/ml of EA2 for the time indicated prior to sample extraction and western blot analyses with an EphA2-specific antibody (D7). […]
(§3) EphA2 overexpression increased malignant growth (FIGS. 8A-8B). […] Colony formation in soft agar was performed as previously described (Zelinski et al., 2001, Cancer Res. 61:2301-6) and scored microscopically, defining clusters of at least three cells as a positive. […] Error bars represent the standard error of the mean of at least three different experiments as determined using Microsoft Excel software.
(§4) Sensitivity of MCF-7^EphA2 cells to tamoxifen was measured. […]

MCF-7^EphA2 cells = assay: Soft agar colonization of MCF-7^EphA2 cells; type: cell-based, human; conditions: EA2 10 μg/ml, tamoxifen 1 μM
Method: as §1, §2, §3, §4

EphA2 = EphA2 (Homo sapiens, UniProt P29317); assay: EphA2 expression level in MCF-7^EphA2 cells after EA2 (western blot); type: cell-based; conditions: 3 μg/ml EA2
Method: FIGS. 13A-13C: EphA2 agonistic antibody EA2 decreases malignant growth. MCF-7^EPhA2 cells were incubated in the presence of 3 μg/ml of EA2 for the time indicated prior to sample extraction and western blot analyses with an EphA2-specific antibody (D7). (B) The membrane was stripped and re-probed with a β-catenin-specific antibody as a loading control. (C) 1×10^5 control or MCF-7^EphA2 cells were suspended in soft agar in the presence or absence of tamoxifen (TAM, 1 μM) and EphA2 agonistic antibody (EA2, 10 μg/ml).
Growth MCF-7^EphA2 cells which had decreased EphA2 expression levels was assayed in soft agar. The EphA2 monoclonal antibody EA2 induced EphA2 activation and subsequent degradation. […] Whereas EA2 decreased soft agar colonization (by 19%), the combination of EA2 and tamoxifen caused a much more dramatic (>80%) decrease in soft agar colonization.

[1] = system: EphA2 on non-transformed MCF-10A cells; assay: Immunofluorescence binding to non-transformed cells with or without EGTA; type: cell-based; conditions: 4mM EGTA for 20 min
Method: (§5) (A, B) Non-transformed MCF-10A cells were labeled with EA2 at 4° C. either before (A) or after (B) treatment with EGTA and prior to fixation and immunolabeling with fluorophore-conjugated anti-mouse IgG. (C, D) Non-transformed MCF-10A (C) or transformed MDA-MB-231 (D) cells were labeled with EA2 either before (middle) or after (top) treatment with EGTA. Control cells were incubated with secondary antibody alone (bottom). The amount of EA2-EphA2 binding was measured using flow cytometry.
The epitopes of EphA2 antibodies were characterized. Non-transformed MCF-10A cells or transformed MDA-MB-231 cells were incubated with 10 μg/ml Eph099B-233.152 or EA2 at 4° C. for 30 min. prior to fixation in a 3% formalin solution and immunolabeling with fluorophore-conjugated anti-mouse IgG. […] Treatment of non-transformed MCF-10A cells with 4mM EGTA for 20 min. dissociated the cells.

[2] = system: EphA2 on transformed MDA-MB-231 cells; assay: Flow cytometry of EA2 binding, transformed cells with or without EGTA; type: cell-based; conditions: 10 μg/ml EA2; 4 mM EGTA 10-15 minutes on ice
Method: as §5
(§6) An equivalent experiment was performed using MCF-10A or MDA-MB-231 cells. The amount of EA2 binding to EphA2 was measured using flow cytometry (FIGS. 17C-17D). Cells were either treated by incubation in 4 mM EGTA for 10-15 minutes on ice (top panel) or were not treated with EGTA (middle panel) before incubation with 10 μg/ml EA2. Cells were then fixed with 3% formalin and labeled with fluorophore-labeled donkey anti-mouse IgG. Control cells were incubated only with secondary antibody (fluorophore-labeled donkey anti-mouse IgG) in the absence of primary antibody (EA2) (bottom panel). The samples were then evaluated using flow cytometry (Becton Dickinson FACStar Plus).

[3] = system: EphA2 on non-transformed MCF-10A cells; assay: Flow cytometry of EA2 binding, non-transformed cells with or without EGTA; type: cell-based; conditions: 10 μg/ml EA2; 4 mM EGTA 10-15 minutes on ice
Method: as §5, §6

[4] = target: T1, EphA2-Ephrin A1-Fc-EA2 complex (Homo sapiens, UniProt P29317); assay: Displacement of labeled EA2 from EphA2-Ephrin A1-Fc complex by unlabeled competitor; type: binding; conditions: biotinylated EA2 10 μg/ml, 30 min
T1 construct: consisting of the extracellular domain of EphA2 linked to human IgG1 constant region
Method: FIGS. 18A-18B: EphA2 EA2 epitope is distinct from Eph099B-233.152 epitope and ligand binding site. (A) EphA2-Fc was incubated with and bound to immobilized Ephrin A1-Fc. Labeled Ephrin A1-Fc (black), EA2 (white) or Eph099B-233.152 (grey) was incubated with the EphA2-Ephrin A1-Fc complex and amount of binding was measured. (B) EphA2-Fc was incubated with and bound to immobilized Ephrin A1-Fc. Labeled EA2 was then incubated with the EphA2-Ephrin A1 complex. Unlabeled competitor was incubated with EphA2-Ephrin A1-EA2 complex in the indicated amount. Competitors were Ephrin A1-Fc (black), EA2 (white) or Eph099B-233.152 (grey).
The EphA2-Ephrin A1-Fc complex was prepared as described above. Biotinylated EA2 (10 μg/ml) was then incubated with the complex for 30 min. Unlabeled competitor was incubated with EphA2-Ephrin A1-Fc-EA2 complex in the indicated amount. Unlabeled EA2 could displace the labeled EA2 at concentrations of 100 ng/ml or greater.

EphA2, sequence (P29317 24-976): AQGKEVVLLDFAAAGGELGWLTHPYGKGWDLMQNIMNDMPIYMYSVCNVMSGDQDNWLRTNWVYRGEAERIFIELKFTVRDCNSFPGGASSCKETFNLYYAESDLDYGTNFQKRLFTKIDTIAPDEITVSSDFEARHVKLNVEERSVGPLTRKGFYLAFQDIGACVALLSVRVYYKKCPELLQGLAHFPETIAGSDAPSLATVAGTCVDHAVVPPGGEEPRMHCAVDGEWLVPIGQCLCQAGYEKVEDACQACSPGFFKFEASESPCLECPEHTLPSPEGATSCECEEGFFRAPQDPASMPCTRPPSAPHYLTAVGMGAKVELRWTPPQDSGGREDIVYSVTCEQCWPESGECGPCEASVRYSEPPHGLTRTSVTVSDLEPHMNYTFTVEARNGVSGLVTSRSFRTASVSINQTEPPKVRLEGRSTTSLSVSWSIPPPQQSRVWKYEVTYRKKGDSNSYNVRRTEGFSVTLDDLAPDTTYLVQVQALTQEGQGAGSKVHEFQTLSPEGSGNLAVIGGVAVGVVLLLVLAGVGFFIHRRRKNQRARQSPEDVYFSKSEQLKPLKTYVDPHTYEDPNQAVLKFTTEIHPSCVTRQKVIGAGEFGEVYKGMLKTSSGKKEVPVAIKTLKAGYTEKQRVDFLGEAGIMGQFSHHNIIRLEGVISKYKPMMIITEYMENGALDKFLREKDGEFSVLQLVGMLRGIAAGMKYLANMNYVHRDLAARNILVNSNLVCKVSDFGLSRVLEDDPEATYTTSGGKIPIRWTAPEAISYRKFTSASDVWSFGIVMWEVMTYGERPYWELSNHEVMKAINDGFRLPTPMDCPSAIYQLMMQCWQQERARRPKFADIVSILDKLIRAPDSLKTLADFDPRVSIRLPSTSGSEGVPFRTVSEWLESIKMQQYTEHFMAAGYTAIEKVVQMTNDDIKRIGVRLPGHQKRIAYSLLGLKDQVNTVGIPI
T1 sequence (P29317 24-537 limits assumed): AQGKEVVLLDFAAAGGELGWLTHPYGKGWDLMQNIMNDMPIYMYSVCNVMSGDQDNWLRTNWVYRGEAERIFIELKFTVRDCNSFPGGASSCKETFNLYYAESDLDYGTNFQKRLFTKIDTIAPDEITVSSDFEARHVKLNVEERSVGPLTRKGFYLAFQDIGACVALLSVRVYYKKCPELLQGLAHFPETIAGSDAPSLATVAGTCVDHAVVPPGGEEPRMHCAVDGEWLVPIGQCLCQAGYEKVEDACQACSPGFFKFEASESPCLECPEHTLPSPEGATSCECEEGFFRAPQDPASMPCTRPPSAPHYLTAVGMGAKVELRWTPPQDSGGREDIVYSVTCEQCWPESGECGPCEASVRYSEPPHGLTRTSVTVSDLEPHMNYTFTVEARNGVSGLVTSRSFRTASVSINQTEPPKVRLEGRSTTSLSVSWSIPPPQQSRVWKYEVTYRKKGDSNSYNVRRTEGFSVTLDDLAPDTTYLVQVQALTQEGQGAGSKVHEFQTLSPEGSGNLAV
T1 sequence (P20827 19-182 partner limits assumed): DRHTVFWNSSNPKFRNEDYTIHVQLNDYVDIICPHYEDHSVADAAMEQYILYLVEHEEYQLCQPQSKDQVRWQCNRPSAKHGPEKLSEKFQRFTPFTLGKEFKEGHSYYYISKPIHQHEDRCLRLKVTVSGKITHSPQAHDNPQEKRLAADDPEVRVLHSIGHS

B1: EA2: EphA2 agonistic monoclonal antibody; ATCC deposit no. PTA-4380; co-pending application Ser. No. 10/436,783; VL SEQ ID NO:33, VH SEQ ID NO:37 (antibody, listed as Homo Sapiens, V domains shown)
VH: DVKLVESGGGLVKPGGSLKLSCAASGFTFSSYTMSWVRQTPEKRLEWVATISSGGTYTYYPDSVKGRFTISRDNAKNTLYLQMSSLKSEDTAMYYCTREAIFTYWGQGTLVTVSA
VL: DIKMTQSPSSMYASLGERVTITCKASQDINNYLSWFQQKPGKSPKTLIYRANRLVDGVPSRFSGSGSGQDYSLTISSLEYEDMGIYYCLKYDEFPYTFGGGTKLEIK
Question: With B1 as the molecule, how does the “Effect of EA2 on tamoxifen response of control MCF-7 cells in soft agar” value (control MCF-7 cells) read?
Answer: Its value is “did not further alter this response”.

Question: What about the “Sensitivity of MCF-7^EphA2 cells to tamoxifen in soft agar” value (MCF-7^EphA2 cells) of the same molecule?
Answer: Its value is “increased the sensitivity of MCF-7^EphA2 cells to tamoxifen”.

Question: What about the “Inhibition / decrease of soft agar colonization, MCF-7^EphA2 cells” value (MCF-7^EphA2 cells) of the same molecule?
Answer: Its value is 19%.

Question: And the EphA2 expression level (EphA2)?
Answer: The EphA2 expression level was “Decreased levels of EphA2 expression were observed within two hours”.

Question: What about the “Time EphA2 remained undetectable” value (EphA2) of the same molecule?
Answer: Its value is no less than 24 h.

Question: And the “Binding to EphA2 on MCF-10A cells with or without EGTA dissociation” value [1]?
Answer: Its value is “bound EphA2 on the EGTA dissociated cells but not the untreated cells; also recorded: preferentially binds EphA2 epitopes exposed by decreasing cell-cell contacts”.

Question: What about the “Effect of EGTA treatment on EA2 binding, transformed cells” value [2] of the same molecule?
Answer: Its value is “did not affect”.

Question: What about the “Effect of EGTA treatment on EA2 binding, non-transformed cells” value [3] of the same molecule?
Answer: Its value is “increased by incubation in EGTA”.

Question: And the “Concentration of unlabeled competitor displacing labeled EA2” value [4]?
Answer: Its value is no less than 100 ng/mL.
